This sample holds only a part of the variants without activity.
B1: TPR 5TU (parent)
chain: GGAUCUUCUCGAUCUAACAAAAAAGACAAAUCUGCCACAAAGCUUGAGAGCAUCUUCGGAUGCAGAGGCGGCAGCCUUCGGUGGCGCGAUAGCGCCAACGUUCUCAACUAUGACACGCAAAACGCGUGCUCCGUUGAAUGGAGUUUAUCAUG

Variants of: B1
Test: polymerase ribozyme fitness, log enrichment relative to wild type (log ratio); higher = more active; in vitro selection for triplet polymerase activity
Method in brief: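 Mutant libraries for each subunit of a heterodimeric triplet polymerase ribozyme were made by PCR and then transcribed. Each library underwent one round of in vitro selection in triplicate: annealing with a biotinylated primer, the partner subunit and triplets, frozen incubation at −7 °C, gel excision of extended constructs, streptavidin-bead capture and RT-PCR. Input and output libraries were Illumina-sequenced, and only genotypes with ≥10 input reads and ≥1 read per output were kept. Fitness is the logarithm, base 2, of genotype enrichment over wild-type enrichment, computed from inverse-variance-weighted replicate averages.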

Compared with A17U C85U, A16C G58U U101G C105A U144G is lower in “polymerase ribozyme fitness (log ratio)” value: -1.68 for the first, at most -4.2 for the second.

Compared with A16C C96G G140U, A17C U53G G62U G117U is higher in “polymerase ribozyme fitness (log ratio)” value: at most -4.2 for the first, -2.27 for the second.

A17U A24U A52G C57U C96G G140A and A16C A22U A97U C114A U135G cannot be ordered by “polymerase ribozyme fitness (log ratio)” value: at most -4.2 for the first, at most -4.2 for the second.

First: A16G C93A
Second: A16U U61G U77C C85A G92C U144A
The “polymerase ribozyme fitness (log ratio)” value of the first is higher: -2.12 for the first, at most -4.2 for the second.

Going from A17U A28G G34C A64C C79G U90G to A16G C38A A147C, the “polymerase ribozyme fitness (log ratio)” value rises from at most -4.2 to -2.97.

Going from A17C C85G G94A C123A G124U to A16G G48A C57G G58A A60C G88A C114A G141A, the “polymerase ribozyme fitness (log ratio)” value falls from -1.12 to at most -4.2.

Going from A17G C87U to A16G C54A C116A G133C, the “polymerase ribozyme fitness (log ratio)” value falls from -0.0232 to -2.21.

A17G C27G C43U C87G A89C U109A A147U and A16G C85G G86U A89C A107G cannot be ordered by “polymerase ribozyme fitness (log ratio)” value: at most -4.2 for the first, at most -4.2 for the second.

Going from A16U C51A G74U C87A A107U to A17U C76A A122G, the “polymerase ribozyme fitness (log ratio)” value rises from at most -4.2 to -0.419.

Compared with A16C G92U C105U A107U A110C A138C, A17G A39G C57A C96A is higher in “polymerase ribozyme fitness (log ratio)” value: at most -4.2 for the first, -2 for the second.

Going from A17G U33G G50U A52U G86C C105U A106C C125A to U15G G83U, the “polymerase ribozyme fitness (log ratio)” value rises from at most -4.2 to -0.494.

Going from A17C C105U to A17C A22C A73C A91C C95G U101A G143A, the “polymerase ribozyme fitness (log ratio)” value falls from 1.03 to at most -4.2.

First: U15G A47G C54U C93G C96U U104C A150G
Second: A17G C93G C108G
The “polymerase ribozyme fitness (log ratio)” value of the first is higher: -3.79 for the first, -4.11 for the second.

A16U G46C U61A G67C G83C A142C and A16C C35G A66C G71A U82C C87A cannot be ordered by “polymerase ribozyme fitness (log ratio)” value: at most -4.2 for the first, at most -4.2 for the second.

Going from A16U A26G U53C G84C C87A G128C G141A to A17G C36U, the “polymerase ribozyme fitness (log ratio)” value rises from at most -4.2 to -3.9.

Going from A17G G84U to A17U A20G A40C G126U, the “polymerase ribozyme fitness (log ratio)” value rises from -2 to -0.583.

Going from A16U A19U A20U A40U G86U C96U to A17U A98U, the “polymerase ribozyme fitness (log ratio)” value rises from at most -4.2 to -1.12.

A17U A30C C35A U55G U109A and A16C C93A are within 0.2 log units of each other in “polymerase ribozyme fitness (log ratio)” value: -4.11 for the first, -3.94 for the second.

A17C U31G C76A C95G and A17C U53A A73U C76A C85G C108A U146A cannot be ordered by “polymerase ribozyme fitness (log ratio)” value: at most -4.2 for the first, at most -4.2 for the second.

Compared with A16G G48U U109G, A16U C57G U77A G88U is lower in “polymerase ribozyme fitness (log ratio)” value: -3.48 for the first, at most -4.2 for the second.

First: A16U A19C C85U
Second: A16U C54A A60C A73C G86A A89C A119G G126U
The “polymerase ribozyme fitness (log ratio)” value of the first is higher: -2.05 for the first, at most -4.2 for the second.

First: A16C A30U G68C C79G
Second: A17C U56A
The “polymerase ribozyme fitness (log ratio)” value of the first is lower: at most -4.2 for the first, 0.36 for the second.

First: A16C C85A
Second: A16C C75A C76A C125G
The “polymerase ribozyme fitness (log ratio)” value of the first is higher: -2.36 for the first, at most -4.2 for the second.

Compared with U15G U148A, A17U U31A C57U C76U C96G C103G U146C is lower in “polymerase ribozyme fitness (log ratio)” value: -2.78 for the first, at most -4.2 for the second.

Going from A16G C85G to A16G C85U, the “polymerase ribozyme fitness (log ratio)” value rises from -2.6 to -0.908.

First: A16C A22C C54U A113U
Second: A17U A24C C32A G100A
The “polymerase ribozyme fitness (log ratio)” value of the first is higher: -4.06 for the first, at most -4.2 for the second.

Going from U15G U53A C95A to A17C A64C G83U, the “polymerase ribozyme fitness (log ratio)” value falls from -1.48 to at most -4.2.

Compared with U15G G81A C118A A119C G133A A138U, A17C G50U C54U C96G is higher in “polymerase ribozyme fitness (log ratio)” value: at most -4.2 for the first, -1.28 for the second.

Compared with A17U C35U A66C C72U G80A C93A, A17U C35U A40U G92U is higher in “polymerase ribozyme fitness (log ratio)” value: at most -4.2 for the first, -2.32 for the second.

Compared with A17G A39U G94U G141A, A16C C38A is higher in “polymerase ribozyme fitness (log ratio)” value: -4.08 for the first, -1.34 for the second.

A16G C27G A30U U61A A97U G128U and A16G A39G G68A C95A C103G C108U U111G A115G C123U cannot be ordered by “polymerase ribozyme fitness (log ratio)” value: at most -4.2 for the first, at most -4.2 for the second.

Compared with A17U C108U, A17G A22G A24U G46A A47C C123A C129A is lower in “polymerase ribozyme fitness (log ratio)” value: -3.48 for the first, at most -4.2 for the second.

Compared with A17C G62A C85A, A17G A60G U61A A110G C118U C129A is lower in “polymerase ribozyme fitness (log ratio)” value: -1.77 for the first, at most -4.2 for the second.

Compared with A17C U31G G48A U53A G80C C85U G133U G140U A142U G152U, A17U A37U C96A C99U A113C U134G G152C is higher in “polymerase ribozyme fitness (log ratio)” value: at most -4.2 for the first, -4.19 for the second.

Compared with A16C G50A C96A, A16G U31G G46A U55A C95G is lower in “polymerase ribozyme fitness (log ratio)” value: -3.37 for the first, at most -4.2 for the second.

U15G C85A C123U and A17U A24U U56G are within 0.2 log units of each other in “polymerase ribozyme fitness (log ratio)” value: -0.906 for the first, -0.773 for the second.

A16U A47C G59A C87G U90A U101A A113G and A17U A41C G83C A97U U127A A138U A150C cannot be ordered by “polymerase ribozyme fitness (log ratio)” value: at most -4.2 for the first, at most -4.2 for the second.

A17U G50A G67U G74A U134G and A17G A21U A49C G59C G74U C85G C116U U134A cannot be ordered by “polymerase ribozyme fitness (log ratio)” value: at most -4.2 for the first, at most -4.2 for the second.

Compared with A17C A19C U55A G94A, A16G A20C A22C C32G A66G C118G G126A C132A is lower in “polymerase ribozyme fitness (log ratio)” value: 1.05 for the first, at most -4.2 for the second.

A17U A23U A28G U55A G84A and A16U G83U C85U C103G U135G cannot be ordered by “polymerase ribozyme fitness (log ratio)” value: at most -4.2 for the first, at most -4.2 for the second.

Compared with U15G C36U A47C C96G U144C, A16G G92U C93U C118U is higher in “polymerase ribozyme fitness (log ratio)” value: at most -4.2 for the first, -2.94 for the second.

First: A16C A19C G84C C96U G126C
Second: A17U C51U C95U C103A
The “polymerase ribozyme fitness (log ratio)” value of the first is lower: -3.42 for the first, -1.47 for the second.

Reference: the RNAGym collection of RNA variant scans (doi:10.1073/pnas.2313332121)
